According to the supplement of paper PMC9732359:
± gives the uncertainty stated by the source.

Assay: protein stability index of a GFP-peptide fusion (yeast GPS) (PSI 1-4); higher = more stable; sorted into four equal gates, so the index is relative within each strain
Summary of the method: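 Sequencing reads from sorted gates were used to score each peptide. The library consisted of tiled 17-residue yeast protein peptides fused downstream of GFP on a Cherry-expressing plasmid, pooled and carried in yeast. Mid-log cultures in leucine-free medium were split into four equal gates by GFP/Cherry ratio, and each gate's plasmids were PCR-amplified and Illumina-sequenced. The protein stability index adds up, over all gates, the read frequency multiplied by the gate number.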

Sequence | protein stability index (doa10∆) | protein stability index (pdr5∆) | protein stability index (san1∆) | protein stability index (ubr1∆)
DVLTLENIQEGTSLTIQ [CDC53] | 3.17 ± 0.1 | 3.22 ± 0.14 | 3.1 ± 0.056 | 3.14 ± 0.054
DVNLDVRIHSIQVLTEA [IRR1] | 2.19 ± 0.15 | 2.84 ± 0.2 | 2.78 ± 0.18 | 2.84 ± 0.13
DVPSEDDPTQLVSRGGC [RPO21] | 3.61 ± 0.28 | 3.06 ± 0.15 | 2.97 ± 0.21 | 3.01 ± 0.15
DVSLLLQRDLFIRLPHW [RGR1] | 2.5 ± 0.087 | 2.51 ± 0.063 | 2.2 ± 0.073 | 2.55 ± 0.083
DVSQLIAGINKKKGLDE [PRP28] | 3.43 ± 0.095 | 3.64 ± 0.11 | 3.29 ± 0.086 | 3.76 ± 0.11
DVSRVAAVETLYQDMAA [RPL20A] | 2.66 ± 0.066 | 2.67 ± 0.08 | 2.37 ± 0.089 | 2.09 ± 0.071
DVTAIQTWSYLSLYSTD [ECM29] | 1.52 ± 0.038 | 1.91 ± 0.036 | 1.9 ± 0.055 | 1.92 ± 0.036
DWESDLHIHLNQILQTE [YDL116W/NUP84] | 2.69 ± 0.1 | 3.07 ± 0.087 | 2.77 ± 0.092 | 2.81 ± 0.15
DWNKRFSHLAGGKIINK [BRR2] | 2.84 ± 0.075 | 3.33 ± 0.14 | 3.12 ± 0.2 | 3 ± 0.089
DYIEFNITFSEELVSLA [YJL039C/NUP192] | – | – | 1.54 ± 0.27 | 1.61 ± 0.28
DYLNAELGEFFVNGVAT [FAS2] | 3.09 ± 0.093 | 2.79 ± 0.24 | 3.06 ± 0.12 | 3.35 ± 0.08
EAAFRNIKTIAETLAEE [RPS5] | 2.79 ± 0.084 | 3.28 ± 0.076 | 3.25 ± 0.053 | 2.84 ± 0.046
EAEVTAEVNGGDDEATE [BRR2] | – | 3.24 ± 0.12 | – | 2.72 ± 0.21
EAFNDGNENFEDFDVEH [RPO26] | 2.97 ± 0.079 | 3.15 ± 0.086 | 2.92 ± 0.085 | 3.21 ± 0.079
EAHPTKVKNFGVWVRYD [RPL20A] | 3.02 ± 0.087 | 2.96 ± 0.056 | 3.01 ± 0.044 | 2.9 ± 0.047
EAKSFQDEAELVEEKTP [RPC82] | 3.53 ± 0.12 | 3.46 ± 0.14 | 3.51 ± 0.14 | 3.5 ± 0.1
EALVQAFAFCIPVYCFS [YCG1] | 1.68 ± 0.071 | 1.83 ± 0.056 | 1.73 ± 0.16 | 1.51 ± 0.064
EANWPLPVNIRRIIQNA [RPO21] | 1.77 ± 0.088 | 1.37 ± 0.089 | – | 1.04 ± 0.064
EARLFNIWGTVRTNRFD [ECM29] | 2.61 ± 0.19 | 2.14 ± 0.15 | – | 2.32 ± 0.28
EAVKQAAKIIYLAHEDN [PRE10] | 2.75 ± 0.19 | 3.02 ± 0.12 | 3.3 ± 0.22 | 2.55 ± 0.14
EAVVDQDVQRTCILHGP [FAS1] | 3.32 ± 0.11 | 3.24 ± 0.087 | 3.17 ± 0.078 | 3.38 ± 0.051
ECFISMQSTSPAVKQWD [SWI1] | 2.34 ± 0.083 | 2.38 ± 0.058 | 2.4 ± 0.086 | 2.65 ± 0.06
ECQVIAAEGLCKLFLAD [YCG1] | 3.29 ± 0.066 | 3.29 ± 0.067 | 3.11 ± 0.047 | 3.25 ± 0.036
EDEEKILDNTENYDDTE [DSN1] | 3.37 ± 0.088 | 3.33 ± 0.078 | 3.4 ± 0.058 | 3.44 ± 0.072
EDEMMHEEDQKTNIIEK [RPN12] | 3.26 ± 0.1 | 3.09 ± 0.12 | 2.58 ± 0.15 | 2.85 ± 0.13
EDETLRRIKEAEENLKK [YIL149C/MLP2] | 3.54 ± 0.23 | 3.54 ± 0.15 | 3.26 ± 0.076 | 3.69 ± 0.13

Sequence | protein stability index (doa10∆) | protein stability index (pdr5∆) | protein stability index (san1∆) | protein stability index (ubr1∆)
EDFEHNNLSSMNLDFDI [MCD1] | 2.76 ± 0.053 | 3.24 ± 0.061 | 3.24 ± 0.04 | 3.24 ± 0.033
EDGTSASFQIVEEDHTL [RPC19] | 3.02 ± 0.16 | 3.69 ± 0.17 | 3.4 ± 0.12 | 3.25 ± 0.13
EDHDVHSNESSNETIGE [IRR1] | 3 ± 0.079 | 3.2 ± 0.086 | 3.28 ± 0.058 | 3.06 ± 0.075
EDIIKRTSPIDNVSNTH [NUT2] | 2.87 ± 0.062 | 2.88 ± 0.06 | 3.01 ± 0.083 | 3.04 ± 0.049
EDITEPKPDKPSGRTRG [ESC2] | 3.07 ± 0.15 | 2.96 ± 0.14 | 3.07 ± 0.11 | 3.26 ± 0.1
EDMETQASDPSKKKKNI [RPC53] | 3.27 ± 0.14 | 3.44 ± 0.19 | 3.24 ± 0.16 | 3.33 ± 0.15
EDPNSAAFDEVEYKLTF [DIS3] | 1.18 ± 0.12 | 1.6 ± 0.29 | 1.17 ± 0.25 | –
EDPVTVEYLTRYVAGVQ [PRE6] | 2.39 ± 0.058 | 2.39 ± 0.07 | 2.54 ± 0.051 | 2.54 ± 0.067
EDRNKIHQYLFQEGVVV [RPS10A] | 2.37 ± 0.064 | 2.37 ± 0.06 | 1.66 ± 0.12 | 2.61 ± 0.058
EDRNQRIKEMYWKLWID [FAS1] | 3.17 ± 0.13 | 3.46 ± 0.1 | 3.16 ± 0.11 | 3.08 ± 0.087
EEAGSPLVYRHELITNI [RPB9] | 3.17 ± 0.076 | 3.39 ± 0.058 | 3.28 ± 0.049 | 3.38 ± 0.06
EEATTEEAGEEEAKEEV [RPS0A] | 2.69 ± 0.11 | 2.78 ± 0.17 | – | –
EEDFYTVVGNASFGKNL [DSN1] | 1.99 ± 0.12 | 1.38 ± 0.25 | 2.9 ± 0.23 | 3.12 ± 0.14
EEEIKKFDSRIRGILMA [PRP8] | 2.71 ± 0.066 | 2.81 ± 0.074 | 2.69 ± 0.052 | 3.02 ± 0.051
EEEMAPYYKYLCEEYLV [RPN7] | 2.12 ± 0.087 | 2.74 ± 0.11 | 2.5 ± 0.14 | 2.64 ± 0.093
EEGRAIPGEYITYALSG [RPS21B] | 2.99 ± 0.073 | 3.1 ± 0.11 | 2.88 ± 0.078 | 2.96 ± 0.044
EEKEEENGDEDEDEDED [QCR6] | 3.68 ± 0.17 | 3.34 ± 0.27 | 3.27 ± 0.084 | 3.64 ± 0.08
EELKDSEINEILARNDE [SNF2] | 3.2 ± 0.18 | 3.55 ± 0.12 | 2.66 ± 0.13 | 3.32 ± 0.089
EENNYQYGYSGSSAGMN [SNF6] | 2.22 ± 0.053 | 2.16 ± 0.077 | 1.94 ± 0.12 | 2.5 ± 0.065
EENWDDVEVDDDFTNEL [SEM1] | – | 3.13 ± 0.22 | 3.05 ± 0.2 | 3.3 ± 0.19
EEPAKEEAPAPTPAASA [FAS2] | 2.75 ± 0.14 | 2.82 ± 0.12 | 2.69 ± 0.26 | 2.98 ± 0.14
EEQLDALECRLASAIAS [CSN12] | – | 2.02 ± 0.15 | 2.38 ± 0.12 | 1.81 ± 0.088
EEQLDLLSAILDPSKSK [MED11] | 3.09 ± 0.099 | 3.18 ± 0.12 | 3.32 ± 0.11 | 3.64 ± 0.2
EETSHLLTVTPGPRLLY [RPN10] | 2.61 ± 0.06 | 2.69 ± 0.074 | 2.54 ± 0.091 | 3.06 ± 0.057
EETYEEKPQFKDGETTD [RPO26] | 3.24 ± 0.23 | 2.98 ± 0.28 | 3.47 ± 0.19 | 3.34 ± 0.14
EEYRKQLDKKNELQKFQ [SMC1] | 3.44 ± 0.22 | 3.43 ± 0.12 | 2.82 ± 0.079 | 3.45 ± 0.1
